Assay results taken from patent US20130196383A1, “Method of Producing Dicer” (published 2013).

What was measured:
[1] = molecular target: T1, hDcr-C (RNase IIIa/IIIb-dsRBD) fragment of human Dicer (Homo sapiens, UniProt Q9UPY3 SEQ:1235-1922); assay: filter; out of detectable limit; almost no binding; conditions: tags: expressed from pHMGWA-His6-MBP vector, E. coli; label: 5'-32P; hairpin pre-miRNA, 73 nt
T1 chain: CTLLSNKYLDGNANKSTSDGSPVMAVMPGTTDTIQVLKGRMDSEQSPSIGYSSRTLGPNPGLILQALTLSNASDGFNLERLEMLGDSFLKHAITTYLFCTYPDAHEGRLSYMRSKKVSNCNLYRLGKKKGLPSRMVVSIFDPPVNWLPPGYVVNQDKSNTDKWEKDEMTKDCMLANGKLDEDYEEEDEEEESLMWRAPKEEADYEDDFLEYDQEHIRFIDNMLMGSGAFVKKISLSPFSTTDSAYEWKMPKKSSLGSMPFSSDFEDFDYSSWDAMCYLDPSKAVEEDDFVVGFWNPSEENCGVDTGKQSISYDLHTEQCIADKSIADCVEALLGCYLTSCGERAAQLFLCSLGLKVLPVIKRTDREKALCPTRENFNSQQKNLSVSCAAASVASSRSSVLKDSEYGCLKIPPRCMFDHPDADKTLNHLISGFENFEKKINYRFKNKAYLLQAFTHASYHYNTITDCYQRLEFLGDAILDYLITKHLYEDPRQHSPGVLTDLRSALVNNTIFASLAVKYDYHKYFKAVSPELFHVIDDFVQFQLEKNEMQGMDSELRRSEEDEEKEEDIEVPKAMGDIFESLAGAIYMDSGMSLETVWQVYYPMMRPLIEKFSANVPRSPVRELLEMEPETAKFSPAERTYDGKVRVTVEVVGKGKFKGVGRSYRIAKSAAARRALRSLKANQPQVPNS
Experimental: Filter binding assays of hDcr and different hDcr fragments were performed in the same way as previously described (7). Briefly, serial dilutions of hDcr protein were incubated in a buffer containing 20 mM Tris-HCl (pH 7.5), 25 mM NaCl, 5 mM EDTA, 1 mM dithiothreitol (DTT), 1% glycerol and ˜0.5-1 nM (1500 CPM) of 5′-end ³²P-labeled duplex RNA substrate (one strand was labeled) at room temperature for 60 min in a 30 μl of total volume. Following incubation, a 25 μl aliquot of each reaction was applied to a dot-blot apparatus equipped with three membranes: Tuffryn, Protran and Nytran (from top to bottom). After drying, the bound (on Protran) or free (on Nytran) RNAs were quantified by a Phosphorimager (GE Healthcare). Percent bound RNA, calculated as the ratio of radioactivity detected on the Protran membrane over the total input radioactivity, was plotted as a function of protein concentration. Kd was determined by global fitting to the equation: kobsd=(kₘₐₓ[…]) (Kd+[Dicer])−1, where kobsd is the observed rate constant at a given protein concentration, kₘₐₓ is the maximal rate constant with saturating protein, and Kd is the protein concentration that provides half the maximal rate. Curve fitting was conducted with KaleidaGraph (Synergy Software, Reading, Pa.). […]

[2] = molecular target: T2, hDcr-CΔRBD fragment of human Dicer (Homo sapiens, UniProt Q9UPY3 SEQ:1235-1844); assay: filter; out of detectable limit; conditions: tags: expressed from pHMGWA-His6-MBP vector, E. coli
T2 chain: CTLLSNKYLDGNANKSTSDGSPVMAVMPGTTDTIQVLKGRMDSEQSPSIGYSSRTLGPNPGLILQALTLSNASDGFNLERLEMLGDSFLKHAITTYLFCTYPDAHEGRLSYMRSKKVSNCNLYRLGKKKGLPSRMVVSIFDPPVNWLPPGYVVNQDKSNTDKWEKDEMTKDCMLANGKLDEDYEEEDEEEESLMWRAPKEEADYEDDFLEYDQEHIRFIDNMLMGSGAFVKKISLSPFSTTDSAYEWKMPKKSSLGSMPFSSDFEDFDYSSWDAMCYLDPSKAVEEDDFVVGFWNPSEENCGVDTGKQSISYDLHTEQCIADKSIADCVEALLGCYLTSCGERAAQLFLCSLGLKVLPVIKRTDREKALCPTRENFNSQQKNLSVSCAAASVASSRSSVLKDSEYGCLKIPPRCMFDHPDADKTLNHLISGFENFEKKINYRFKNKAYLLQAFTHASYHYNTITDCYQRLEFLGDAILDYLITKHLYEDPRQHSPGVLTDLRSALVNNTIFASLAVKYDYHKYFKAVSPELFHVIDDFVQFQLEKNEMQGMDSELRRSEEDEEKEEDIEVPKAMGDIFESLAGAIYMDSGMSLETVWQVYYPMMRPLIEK
Experimental: Filter binding assays of hDcr and different hDcr fragments were performed in the same way as previously described (7). Briefly, serial dilutions of hDcr protein were incubated in a buffer containing 20 mM Tris-HCl (pH 7.5), 25 mM NaCl, 5 mM EDTA, 1 mM dithiothreitol (DTT), 1% glycerol and ˜0.5-1 nM (1500 CPM) of 5′-end ³²P-labeled duplex RNA substrate (one strand was labeled) at room temperature for 60 min in a 30 μl of total volume. Following incubation, a 25 μl aliquot of each reaction was applied to a dot-blot apparatus equipped with three membranes: Tuffryn, Protran and Nytran (from top to bottom). After drying, the bound (on Protran) or free (on Nytran) RNAs were quantified by a Phosphorimager (GE Healthcare). Percent bound RNA, calculated as the ratio of radioactivity detected on the Protran membrane over the total input radioactivity, was plotted as a function of protein concentration. Kd was determined by global fitting to the equation: kobsd=(kₘₐₓ[…]) (Kd+[Dicer])−1, where kobsd is the observed rate constant at a given protein concentration, kₘₐₓ is the maximal rate constant with saturating protein, and Kd is the protein concentration that provides half the maximal rate. Curve fitting was conducted with KaleidaGraph (Synergy Software, Reading, Pa.).
To establish the relationship between cleavage activity and substrate binding, nitrocellulose filter-binding assays were performed with three kinds of RNAs under non-cleavage conditions: substrate dsRNA ([…]), Dicer product-mimic dsRNA (19-bp) and a pre-miRNA (pre-hlet-7a-1).

[3] = molecular target: T3, DP, tandem DUF283-PAZ domains of human Dicer (605-1068), bacterially expressed
T3 chain: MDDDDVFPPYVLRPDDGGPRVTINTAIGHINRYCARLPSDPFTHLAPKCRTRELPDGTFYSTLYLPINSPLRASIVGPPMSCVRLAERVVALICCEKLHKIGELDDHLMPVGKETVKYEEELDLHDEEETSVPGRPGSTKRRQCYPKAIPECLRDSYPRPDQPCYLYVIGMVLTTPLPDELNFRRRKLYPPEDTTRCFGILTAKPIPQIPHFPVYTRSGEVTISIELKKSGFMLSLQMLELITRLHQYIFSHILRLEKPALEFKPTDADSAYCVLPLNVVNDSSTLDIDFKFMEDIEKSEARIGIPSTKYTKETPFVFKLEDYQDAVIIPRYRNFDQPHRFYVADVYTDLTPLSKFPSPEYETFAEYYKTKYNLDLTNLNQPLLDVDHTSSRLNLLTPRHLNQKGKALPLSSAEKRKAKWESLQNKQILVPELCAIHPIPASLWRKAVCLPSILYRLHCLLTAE

[4] = molecular target: T4, hDcr-N, N-terminal fragment of human Dicer (1-1068; ATPase/hel, DUF283 and PAZ domains), co-expressed in Sf9 … (human, UniProt Q9UPY3 1-1068); assay: co-expression in Sf9 cells, co-purification
T4 construct: Co-expressed with hDcr-C in baculovirus-infected Sf9 cells; It could not be expressed alone
T4 sequence: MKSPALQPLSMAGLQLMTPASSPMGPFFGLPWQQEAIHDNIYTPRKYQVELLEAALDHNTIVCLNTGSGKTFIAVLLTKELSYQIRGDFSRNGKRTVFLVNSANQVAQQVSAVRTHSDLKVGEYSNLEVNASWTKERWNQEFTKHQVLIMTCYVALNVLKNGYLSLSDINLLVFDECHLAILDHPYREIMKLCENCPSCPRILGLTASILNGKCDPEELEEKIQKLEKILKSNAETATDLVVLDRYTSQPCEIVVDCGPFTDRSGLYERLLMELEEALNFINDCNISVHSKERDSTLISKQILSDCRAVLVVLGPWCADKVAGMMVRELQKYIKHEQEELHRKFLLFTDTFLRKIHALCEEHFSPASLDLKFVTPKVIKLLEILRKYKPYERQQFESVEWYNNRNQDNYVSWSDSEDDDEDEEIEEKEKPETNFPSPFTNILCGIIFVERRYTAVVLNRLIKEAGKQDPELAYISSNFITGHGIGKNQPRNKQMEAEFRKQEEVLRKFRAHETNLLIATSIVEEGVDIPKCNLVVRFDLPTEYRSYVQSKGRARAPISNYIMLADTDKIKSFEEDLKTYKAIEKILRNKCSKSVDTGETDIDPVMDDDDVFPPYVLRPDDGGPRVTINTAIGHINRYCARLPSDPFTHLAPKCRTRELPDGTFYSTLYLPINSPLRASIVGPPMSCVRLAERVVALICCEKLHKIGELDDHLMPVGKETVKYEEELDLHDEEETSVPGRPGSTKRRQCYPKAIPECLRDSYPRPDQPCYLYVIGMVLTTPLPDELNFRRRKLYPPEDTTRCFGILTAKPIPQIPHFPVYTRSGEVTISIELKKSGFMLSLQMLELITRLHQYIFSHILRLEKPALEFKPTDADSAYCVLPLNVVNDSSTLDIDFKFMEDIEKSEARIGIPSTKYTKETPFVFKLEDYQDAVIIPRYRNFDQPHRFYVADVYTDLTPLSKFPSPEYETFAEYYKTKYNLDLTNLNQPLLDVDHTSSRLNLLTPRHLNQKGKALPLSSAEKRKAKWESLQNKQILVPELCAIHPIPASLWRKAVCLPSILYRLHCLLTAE

B1: pre-hlet-7a-1 (ssRNA)
RNA: UGAGGUAGUAGGUUGUAUAGUUUUAGGGUCACACCCACCACUGGGAGAUAACUAUACAAUCUACUGUCUUACC
[1]
  binding result: no binding
[2]; label: 5'-32P, hairpin pre-miRNA, 73 nt
  binding result: no binding

B2: 37ab (dsRNA)
RNA 1: UGAGGUAGUAGGUUGUAUAGUUUGAAAGUUCACGAUU
RNA 2: UCGUGAACUUUCAAACUAUACAACCUACUACCUCAUU
[2]; label: 5'-32P on one strand (37a), perfectly matched 35-bp duplex
  binding result: no binding

B3: hDcr-C, C-terminal fragment of human Dicer (1235-1922; two RNase III domains and C-terminal dsRBD), co-expressed in Sf9 cells (enzyme)
chain: CTLLSNKYLDGNANKSTSDGSPVMAVMPGTTDTIQVLKGRMDSEQSPSIGYSSRTLGPNPGLILQALTLSNASDGFNLERLEMLGDSFLKHAITTYLFCTYPDAHEGRLSYMRSKKVSNCNLYRLGKKKGLPSRMVVSIFDPPVNWLPPGYVVNQDKSNTDKWEKDEMTKDCMLANGKLDEDYEEEDEEEESLMWRAPKEEADYEDDFLEYDQEHIRFIDNMLMGSGAFVKKISLSPFSTTDSAYEWKMPKKSSLGSMPFSSDFEDFDYSSWDAMCYLDPSKAVEEDDFVVGFWNPSEENCGVDTGKQSISYDLHTEQCIADKSIADCVEALLGCYLTSCGERAAQLFLCSLGLKVLPVIKRTDREKALCPTRENFNSQQKNLSVSCAAASVASSRSSVLKDSEYGCLKIPPRCMFDHPDADKTLNHLISGFENFEKKINYRFKNKAYLLQAFTHASYHYNTITDCYQRLEFLGDAILDYLITKHLYEDPRQHSPGVLTDLRSALVNNTIFASLAVKYDYHKYFKAVSPELFHVIDDFVQFQLEKNEMQGMDSELRRSEEDEEKEEDIEVPKAMGDIFESLAGAIYMDSGMSLETVWQVYYPMMRPLIEKFSANVPRSPVRELLEMEPETAKFSPAERTYDGKVRVTVEVVGKGKFKGVGRSYRIAKSAAARRALRSLKANQPQVPNS
[3]
  RNA cleavage assay (37ab dsRNA), size pattern of the products: addition of the DP polypeptide to the hDcr-C cleavage reaction led to RNA products similar to those produced by full-length Dicer
[4]
  binding result: binds
